Assay results taken from US20220073618A1.

What was measured:
[1] = molecular target: biotin-labeled PD-L1-Fc (human) (UniProt Q9NZQ7); test: ELISA: biotin-PD-L1-Fc binding to coated human PD-1 with titrated antibody, OD 450 nm, fitted curve; negative control
[2] = molecular target: biotin-labeled PD-L1-Fc (human) (UniProt Q9NZQ7); test: ELISA: biotin-PD-L1-Fc binding to coated human PD-1 with titrated antibody; negative control
[3] = molecular target: human PD-L1 on cell surface (human) (UniProt Q9NZQ7); test: flow cytometry on CHO cells expressing human PD-L1, fitted curve, negative control
[4] = molecular target: biotin-labeled PD-L1-Fc (human) (UniProt Q9NZQ7); test: flow cytometry: biotin-PD-L1-Fc binding to CHO cells expressing human PD-1 with titrated antibody, fitted curve; negative control
[5] = molecular target: monkey PD-L1 on cell surface (monkey); test: flow cytometry on CHO cells expressing monkey PD-L1, fitted curve, negative control

biotin-labeled PD-L1-Fc (human), sequence (Q9NZQ7 19-238 limits assumed): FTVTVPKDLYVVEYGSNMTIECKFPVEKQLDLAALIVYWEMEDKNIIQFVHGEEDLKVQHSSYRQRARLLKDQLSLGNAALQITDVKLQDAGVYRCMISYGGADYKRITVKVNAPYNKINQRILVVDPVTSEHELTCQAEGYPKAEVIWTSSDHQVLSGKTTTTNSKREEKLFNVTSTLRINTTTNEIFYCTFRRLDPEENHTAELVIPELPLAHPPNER
human PD-L1 on cell surface (human), sequence (Q9NZQ7 19-290): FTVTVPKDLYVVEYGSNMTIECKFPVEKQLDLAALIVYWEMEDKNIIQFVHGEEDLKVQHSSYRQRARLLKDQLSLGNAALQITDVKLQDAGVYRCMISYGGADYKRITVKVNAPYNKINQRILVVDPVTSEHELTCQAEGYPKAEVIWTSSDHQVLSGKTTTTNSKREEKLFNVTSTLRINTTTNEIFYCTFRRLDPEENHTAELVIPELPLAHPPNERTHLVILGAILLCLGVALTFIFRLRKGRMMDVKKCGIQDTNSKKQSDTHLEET

**Q.** With negative control antibody human IgG as the substance, how does the Bottom [1] read?
**A.** Its Bottom is 1.75.

**Q.** What about the LogEC50 [1] of the same substance?
**A.** Its LogEC50 is 3.46.

**Q.** And the Span [1]?
**A.** Its Span is 0.186.

**Q.** And the Top [1]?
**A.** Its Top is 1.94.

**Q.** What about the EC50 [2] of the same substance?
**A.** The EC50 was 2.88 µg/mL.

**Q.** What about the Bottom [3] of the same substance?
**A.** Its Bottom is 166.

**Q.** What about the EC50 [3] of the same substance?
**A.** The EC50 was 0.015 nM.

**Q.** And the LogEC50 [3]?
**A.** The LogEC50 was -1.82.

**Q.** And the Span [3]?
**A.** The Span was 24.7.

**Q.** And the Top [3]?
**A.** Its Top is 191.

**Q.** What about the Bottom [4] of the same substance?
**A.** The Bottom was 5880.

**Q.** What about the LogEC50 [4] of the same substance?
**A.** Its LogEC50 is -17.5.

**Q.** What about the Span [4] of the same substance?
**A.** The Span was 1.15e+06.

**Q.** And the Top [4]?
**A.** The Top was 1.16e+06.

**Q.** And the Bottom [5]?
**A.** Its Bottom is 216.

**Q.** And the EC50 [5]?
**A.** Its EC50 is 19.3 nM.

**Q.** And the LogEC50 [5]?
**A.** Its LogEC50 is 1.29.

**Q.** What about the Span [5] of the same substance?
**A.** Its Span is 32.

**Q.** What about the Top [5] of the same substance?
**A.** Its Top is 248.
